Patent publication US20220056133A1

How the values were obtained:
[1] = molecular target: TRBV9 family TCR on human peripheral blood T lymphocytes (human); experiment: FACS sorting with MA-042-FITC, then sequencing of the TCR beta-chain repertoire of the sorted cells
[2] = molecular target: TRBV9 family TCR on human peripheral blood T lymphocytes (human); experiment: cell-based or functional assay
[3] = molecular target: TRBV9 family TCR on human peripheral blood T lymphocytes (human); experiment: flow cytometry sorting of human peripheral blood mononuclear cells stained with MA-042-FITC, CD3-eFluor405 and CD45-PC5 at 100 ng/ml; dot plot of MA-042 against CD3
[4] = molecular target: human antigen (immobilised on AR2G sensors in the Octet assay of Example 2) (human); experiment: BLI (OctetRed 96), antigen immobilised on AR2G sensors, antibody in solution, 1:1 global model, 30 C
[5] = molecular target: TRBV9 family TCR on human peripheral blood T lymphocytes (human)

enrichment of the sorted fraction's TCR beta-chain libraries with TRBV9-encoded sequences [1]: 93% | antibody concentration at which complete elimination of the target population was detected [2]: 500 ng/mL | MA-042+ (share of cells in the MA-042+ gate) [3]: 1.9% | Kd [4]: < 1 pM | koff [4]: < 1e-07 s⁻¹ | kon [4]: 319000 M⁻¹ s⁻¹
B1: antibody MA-042 (antibody, human IgG1, kappa, V domains shown)
VH: QVQLVQSGSELKKPGESVKVSCKASGYTFTDYLVHWVRQAPGQGLEWMGWINTYTGTPTYADDFEGRFVFSLDTSVSTANLQISSLKAEDTAVYFCARSWRRGLRGIGFDYWGQGTLVTVSS
VL: DIQMTQSPYSLSASVGDRVTITCKASKSINKYLAWFQQKPGKPNKLLIYDGSTLQSGVPSRFSGSGSGTDFTLTISSLEPEDFATYYCQQHNEYPPTFGQGTKLEIKR
EC50 in a cytotoxicity assay (elimination of TRBV9-positive cells among CD3+ lymphocytes, flow cytometry after 72 hours) [2]: 0.1 µg/mL | share of CD3+ cells in the TRBV9+ (MA-042-FITC positive) gate after the cytotoxicity assay with 1 ng/ml MA-042 (right panel) [5]: 2% | share of CD3+ cells in the TRBV9+ (MA-042-FITC positive) gate after the cytotoxicity assay with 1 ug/ml MA-042 (left panel) [5]: 0.3%
